Experimental data reported in US20140134169A1, “Methods of Treating Ovarian Cancer with Dll4 Antagonists” (Regeneron Pharmaceuticals, Inc., priority 2012, published 2014).

How the values were obtained:
[1] = tested on: human VM-Cub1 tumor cells (bladder carcinoma cells); experiment: Growth of human VM-Cub1 tumors implanted in humanized Dll4 SCID mice; format: in vivo; conditions: for TGI(%): day 32; for TGD: to 600 mm3
Protocol: The humanized Dll4 SCID mouse was made by replacing the entire extracellular domain of the mouse Dll4 gene with the corresponding extracellular region of the human Dll4 gene (7 kb) in embryonic stem (ES) cells. Homozygous hDll4 mice were generated and bred into SCID background.
A total of 45 mice were divided into nine groups (n=5 per cohort). The first group was treated subcutaneously (sc) with hFc at 2 mg/kg; the second and third groups were treated sc with REGN421 at 0.5 and 2 mg/kg, respectively; the fourth and fifth groups were treated intraperitoneally (ip) with cisplatin at 0.5 and 2 mg/kg, respectively; the sixth group was treated sc with REGN421 at 0.5 mg/kg and ip with cisplatin at 0.5 mg/kg; the seventh group was treated sc with REGN421 at 0.5 mg/kg and ip with cisplatin at 2 mg/kg; the eighth group was treated sc with REGN421 at 2 mg/kg and ip with cisplatin at 0.5 mg/kg; and the ninth group was treated sc with REGN421 at 2 mg/kg and ip with cisplatin at 2 mg/kg. REGN421 was administered every 3-4 days starting on day 14 and mice received three doses total. Cisplatin was administered every 24 hours starting on day 14; mice received four doses total.
To assess the effects of REGN421 and cisplatin as single agents or in combination treatments, the changes in tumor size were recorded. Tumor growth was measured three days before the initial REGN421 treatment, on the day of each REGN421 treatment (days 14, 17 and 21) and thereafter every 3-4 days until tumors reached ˜600 mm3 in size. In vivo tumor size was calculated using the formula (length×width2)/2 (FIG. 1 and Table 1).
Tumor Growth Inhibition, TGI, was determined by calculating the difference in tumor size for treated (T) versus vehicle control (C) tumor at the day the control cohort was euthanized (i.e., at day 32); TGI=[1−(Tfinal−Tinitial)/(Cfinal−Cinitial)]×100.
Tumor growth delay, TGD, was assessed as the difference in days between treated (T) versus control (C) tumors when each cohort reached a specified tumor size. The predetermined tumor size for this experiment was 600 mm^3.

[2] = Phase I pharmacokinetics, single 30-min IV infusion, ELISA; format: in vivo, human
Protocol: REGN421 is currently being studied in a first-in-human trial. The primary objective of the study is to determine the recommended dose of REGN421 for future efficacy trials. The secondary objectives are to characterize the drug safety profile, its pharmacokinetics, immunogenicity, and pharmacodynamics, as well as preliminary evidence of efficacy. In this study, anti-hDll4 antibody REGN421 is administered intravenously every 3 weeks to patients whose cancer has progressed on conventional therapy. The study design follows standard methodology for dose escalation and definition of dose-limiting toxicity. To date, 7 patients have been treated at 0.25 mg/kg/dose every three weeks, and 6 patients have been treated at 0.50 mg/kg/dose every three weeks. For the pharmacokinetic study, blood samples were taken at pre-dose, 0 hour, and post-dose 1, 2, 4 and 8 hours on Day 1, followed by Days 2, 3, 4, 8 and 15 of Cycle 1; and pre-dose, 0 hour on Day 1 of Cycles 2, and post-treatment follow-up on Days 15, 30 and 60. Plasma/serum levels of REGN421 in the samples are measured by ELISA with an upper limit of quantification of 2.5 μg/mL and a lower limit of quantification of 0.039 μg/mL in the undiluted serum sample. The study is ongoing with the intent to administer higher doses, defined in the protocol as 1, 2, 4, and 7 mg/kg/dose.
The currently available data showing plasma pharmacokinetic parameters following single 30-min. Cmax: Maximum serum concentration of the drug; Tlast: Time to the last quantifiable concentration of the drug; Clast: Last quantifiable concentration of the drug; AUClast: Area under curve up to the last concentration of the drug; AUC: Total area under the curve (i.e., drug exposure); t1/2Z: Terminal half life; Vss: Volume of distribution at steady state; CL: Drug clearance rate. Values are: mean, (CV %), and [range] (a: median [range]).

[3] = tested on: A2780 cells; experiment: A2780 ovarian xenograft (intraperitoneal) tumor growth inhibition; format: in vivo, human; conditions: for % TGI: REGN421 2.5 mg/kg 1x/week
Protocol: Ovarian tumor xenograft cells were implanted into humanized Dll4 SCID mice or vendor SCID mice (i.e., SCID mice expressing native murine Dll4). After implantation, mice were treated with REGN421 (anti-human Dll4 antibody, binds to human Dll4), mDll4Ab1 (anti-murine Dll4 antibody, binds to murine Dll4), or a human Fc domain control protein. In one study, mice were treated with VEGF-Trap, mDll4Ab1 or VEGF-Trap plus mDll4Ab1. TOV-112D cells (5×10^6) were implanted subcutaneously into the right flank of humanized Dll4 (n=4) or vendor SCID mice (n=7). Treatment with REGN421 (2.5 mg/kg, 1×/week) or mDll4Ab1 (5 mg/kg, 1×/week) vs. hFc control was initiated one week after tumor cell implantation. Animals were treated for 2 to 3 weeks. A2780 cells (2×10^6) were implanted intraperitoneally into humanized Dll4 or vendor SCID mice (n=4-5). Treatment with REGN421 (2.5 mg/kg, 1×/week) or mDll4Ab1 (5 mg/kg, 1×/week) vs. hFc control was initiated one week after tumor cell implantation. For the A2780 combination study, simultaneous treatment with mDll4Ab1 (5 mg/kg, 1×/week) and VEGF-Trap (10 mg/kg, 2×/week) was initiated one week after tumor cell implantation. A VEGF-Trap single treatment arm was included in this study. Animals bearing A2780 tumors were treated for 4-5 weeks. SKOV-3 cells (5×10^6) in matrigel were implanted subcutaneously and tumor-bearing animals (n=10) were dosed with REGN421 (2.5 mg/kg) and mDll4Ab1 (5 mg/kg) once weekly. OVCAR-3 cells (1×10^7) were implanted subcutaneously into the right flank of vendor SCID mice (n=7). Treatment with mDll4Ab1 (5 mg/kg 1×/week) vs. hFc control was initiated 66 days after tumor cell implantation. Animals were treated for a total of 5 weeks. Tumor growth inhibition (TGI) was measured as detailed above.

B1: REGN421 (antibody, V domains shown)
VH: QVQLVESGGGVVQPGRSLRLSCAASGFTFSSYGMHWVRQAPGKGLEWVSFLWYDGTNKNYVESVKGRFTISRDNSKNMLYLEMNSLRAEDTAVYYCARDHDFRSGYEGWFDPWGQGTLVTVSS
VL: EIVLTQSPATLSLSPGERATLSCRASQSVSSYLAWYQQKPGQAPRLLIYDASNRATGIPARFSGSGSGTDFTLTISSLEPEDFAVYYCQHRSNWPPTFGGGTKVEIK
[1]; REGN421 0.5 mg/kg/dose sc x3
  Euthanized: 32 days
  TGI(%): −13.7%
  TGD: 0 days
[1]; REGN421 2 mg/kg/dose sc x3
  Euthanized: 44 days
  TGI(%): 83.1%
  TGD: 12 days
[1]; REGN421 alone, dose not stated
  reduction in tumor growth: 54%
[2]; 0.25 mg/kg IV, n = 7, mean
  AUC: 489 µg·h/mL
  AUClast: 452 µg·h/mL
  CL: 0.0473 L/h
  Cmax: 6270 ng/mL
  T1/2Z: 47.1 h
  Vss: 2.85 L
[2]; 0.25 mg/kg IV, n = 7, median
  Tlast: 170 h
[2]; 0.5 mg/kg IV, n = 2, mean
  AUC: 963 µg·h/mL
  AUClast: 759 µg·h/mL
  CL: 0.0355 L/h
  Clast: 2240 ng/mL
  Cmax: 9880 ng/mL
  T1/2Z: 92.3 h
  Vss: 3.64 L
[2]; 0.5 mg/kg IV, n = 2, median
  Tlast: 203 h
[3]; Humanized Dll4 SCID mice, 2.5 mg/kg
  % TGI: 83%
[3]; SCID mice (native murine Dll4), mDll4Ab1 5 mg/kg 1x/week, VEGF-Trap 10 mg/kg 2x/week
  % TGI: −37%
[3]; vendor SCID mice
  anti-tumor activity (in words): did not exhibit any appreciable anti-tumor activity
